For data set [1], the target named is T1, ParT (Streptomyces coelicolor A3(2) (plasmid SCP2)) (UniProt Q8VWE5).
T1 sequence: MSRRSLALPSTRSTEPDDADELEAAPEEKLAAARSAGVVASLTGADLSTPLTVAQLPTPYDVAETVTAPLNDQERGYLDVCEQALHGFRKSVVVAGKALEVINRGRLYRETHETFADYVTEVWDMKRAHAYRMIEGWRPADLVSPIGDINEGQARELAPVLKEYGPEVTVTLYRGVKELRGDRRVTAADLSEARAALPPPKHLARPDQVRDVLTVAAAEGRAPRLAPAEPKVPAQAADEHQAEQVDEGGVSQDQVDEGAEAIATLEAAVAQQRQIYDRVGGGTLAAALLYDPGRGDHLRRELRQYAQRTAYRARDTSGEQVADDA
Kind of data set: BLI. The conditions noted are these: BLI: 100 mM Tris-HCl pH 8, 150 mM NaCl, 1 mM MgCl2, 0.005% Tween-20, temperature not given.

The subject of data set [2] is ParT (G87P) (Streptomyces coelicolor A3(2) (plasmid SCP2)). Kind of data set: BLI. The conditions noted are these: BLI: 100 mM Tris-HCl pH 8, 150 mM NaCl, 1 mM MgCl2, 0.005% Tween-20, temperature not given; SPR at 4 C on Biacore 8K. For orientation: Surface plasmon resonance follows binding to a sensor surface in real time, without labels.
Data set [3] concerns the target T1, ParT (Streptomyces coelicolor A3(2) (plasmid SCP2)). Nature of the data set: SPR. The conditions noted are these: 4 C; kinetics; DNA fragment assumed as in BLI; BLI: 100 mM Tris-HCl pH 8, 150 mM NaCl, 1 mM MgCl2, 0.005% Tween-20, temperature not given; SPR at 4 C on Biacore 8K.
Data set [4] has as its target T2, ParT (Streptomyces coelicolor A3(2) (plasmid …, UniProt Q8VWE5 1-325)).
T2 sequence: T1 sequence
Kind of data set: BLI; no NTP; equilibrium analysis; BLI: 100 mM Tris-HCl pH 8, 150 mM NaCl, 1 mM MgCl2, 0.005% Tween-20, temperature not given; SPR at 4 C on Biacore 8K. The conditions noted are these: protein: recombinant; tags: C-terminal His6; chain copies: 2; label: 5' biotin on strand 1 (BLI); blunt. For orientation: Biolayer interferometry detects binding as a change in optical thickness at a sensor tip.

For data set [5], the target named is T2, ParT. Kind of data set: BLI; up to 2 uM ParT; BLI: 100 mM Tris-HCl pH 8, 150 mM NaCl, 1 mM MgCl2, 0.005% Tween-20, temperature not given; SPR at 4 C on Biacore 8K. The conditions noted are these: protein: recombinant; tags: C-terminal His6; chain copies: 2; label: 5' biotin on strand 1 (BLI); blunt.
Data set [6] deals with ParA-His6, ParA of plasmid SCP2 (Streptomyces coelicolor).
Data set [7] concerns the molecule itself. Kind of data set: not stated; apo-ParT in solution (SI Appendix, Fig. S8A); the method is not told in the main text.

The record followed here is article PMC12260392, “Expanding the diversity of bacterial DNA partitioning: A CTP-independent ParABS system for plasmid partitioning in Streptomyces” (Proceedings of the National Academy of Sciences of the …, 2025).

Usually Kd stands for the concentration at which binding is half-saturated. By stoichiometry N is commonly meant a count of units in the complex or per binding partner.

Take 180-bp parS DNA cut with BamHI or EcoRI: the binding signal (fraction of closed-loop signal) came to 0.2 in data set [1] (1 uM ParT, free DNA end by BamHI or EcoRI, SPR at 4 C on Biacore …) and 1 in data set [2].
On to 40-bp parS+10 duplex, for which the Kd was 580 nM in data set [1] (no NTP, equilibrium analysis, SPR at 4 C on Biacore 8K) and 730 nM in data set [3].

B1: 40-bp parS duplex (dsDNA)
DNA 1: GGCCGACCTCGTGTCTCCAATTGGAGACATCAACGAGGGC
DNA 2: GCCCTCGTTGATGTCTCCAATTGGAGACACGAGGTCGGCC
In the case of B1, the Kd in the data set with ParT [4] is 680 ± 200 nM.

B2: 40-bp scrambled parS duplex (dsDNA)
DNA 1: ATCGGGCACCTTAGGGCAATCGTAAGTTCGGCGCACGACC
DNA 2: GGTCGTGCGCCGAACTTACGATTGCCCTAAGGTGCCCGAT
Regarding B2, the binding result with ParT [5] is “no binding”.

B3: biotinylated ParT (WT), ParB-like protein of plasmid SCP2 (natural protein)
chain: T1 sequence
modifications: biotin (site and way of biotinylation not stated)
In data set [6], B3 gave an ATPase activity of 0.5 µM ParA with ATP, nonspecific DNA and ParT in increasing molar excess (ATP/ParA/hour) of 6.

B4: ParT (WT), purified, unlabelled (natural protein, Streptomyces coelicolor, UniProt Q8VWE5 1-325, looked up)
chain: T1 sequence
notes: ParT (SCP2.04c), ParB-like protein encoded on plasmid SCP2 of Streptomyces coelicolor, UniProt Q8VWE5; the rows with itself tell the dimer; also called apo-ParT; SCP2.04c; source: purified
For B4, the “stoichiometry N” value in data set [7] stood at 2.
